Here are results for 3 molecules from doi:10.1101/301655 (bioRxiv, 2018).

This assay concerns the target T1, Lon protease (Caulobacter crescentus) (Caulobacter crescentus, UniProt P0CAW0 1-799).
T1 sequence (looked up): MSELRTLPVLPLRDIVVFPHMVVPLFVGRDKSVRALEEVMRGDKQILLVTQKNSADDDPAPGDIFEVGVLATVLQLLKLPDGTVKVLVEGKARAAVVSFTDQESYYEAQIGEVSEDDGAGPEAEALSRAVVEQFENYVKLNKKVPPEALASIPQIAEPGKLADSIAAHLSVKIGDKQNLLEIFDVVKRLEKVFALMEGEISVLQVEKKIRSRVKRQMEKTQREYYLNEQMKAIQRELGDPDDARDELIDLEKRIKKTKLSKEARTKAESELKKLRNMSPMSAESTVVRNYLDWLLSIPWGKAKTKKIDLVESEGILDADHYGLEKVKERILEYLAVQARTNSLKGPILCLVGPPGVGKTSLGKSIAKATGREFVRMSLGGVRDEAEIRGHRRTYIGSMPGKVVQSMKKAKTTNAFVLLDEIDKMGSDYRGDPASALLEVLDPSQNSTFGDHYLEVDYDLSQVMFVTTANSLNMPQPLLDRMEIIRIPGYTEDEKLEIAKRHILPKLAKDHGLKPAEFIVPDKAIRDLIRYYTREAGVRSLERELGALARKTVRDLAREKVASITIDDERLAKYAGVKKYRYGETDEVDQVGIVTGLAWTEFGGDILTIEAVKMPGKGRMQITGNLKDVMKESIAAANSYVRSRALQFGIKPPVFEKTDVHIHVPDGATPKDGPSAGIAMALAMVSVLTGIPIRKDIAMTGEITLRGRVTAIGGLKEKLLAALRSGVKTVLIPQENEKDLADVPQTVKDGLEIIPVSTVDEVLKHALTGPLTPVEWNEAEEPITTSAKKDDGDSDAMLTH
The assay is described as follows: filtration-spin binding assay.

B1: DnaA fragment 143-391 (AAA+ ATPase domain III) (domain or fragment, Caulobacter crescentus, UniProt P0CAU4 143-391, looked up)
chain: SPRTQGLQERFTFETFVPGPANEFAHAVARRIANWADGHFNPVLFHGPYGFGKTHLLNALAWEAMRNAPEKRVVYLTAERFLSTFVRAVMDRQTAAFKEELRAADLLIIDDVHFIAGKQSTQEELFHTLTALVGEGGRVVFSADRPPSAMTEMDAHLRSHLSAGLVCGLEPADRNLRLGILERKIQTLGAAHGFEPSIRPEVMQFLADRFTDSVRELEGALNTLSARAGEGLSRMTLDEVQAILRPHLR
As for B1, the binding result is “binds”.

B2: DnaA fragment 117-391 (linker domain II and AAA+ ATPase domain III) (domain or fragment, Caulobacter crescentus, UniProt P0CAU4 117-391, looked up)
chain: AVAAEPIEIVLPVSTDAPTVVAPSAKSPRTQGLQERFTFETFVPGPANEFAHAVARRIANWADGHFNPVLFHGPYGFGKTHLLNALAWEAMRNAPEKRVVYLTAERFLSTFVRAVMDRQTAAFKEELRAADLLIIDDVHFIAGKQSTQEELFHTLTALVGEGGRVVFSADRPPSAMTEMDAHLRSHLSAGLVCGLEPADRNLRLGILERKIQTLGAAHGFEPSIRPEVMQFLADRFTDSVRELEGALNTLSARAGEGLSRMTLDEVQAILRPHLR
Turning to B2, the binding result was “binds”.

B3: DnaA fragment 143-490 (domains III+IV) (domain or fragment, Caulobacter crescentus, UniProt P0CAU4 143-490, looked up)
chain: SPRTQGLQERFTFETFVPGPANEFAHAVARRIANWADGHFNPVLFHGPYGFGKTHLLNALAWEAMRNAPEKRVVYLTAERFLSTFVRAVMDRQTAAFKEELRAADLLIIDDVHFIAGKQSTQEELFHTLTALVGEGGRVVFSADRPPSAMTEMDAHLRSHLSAGLVCGLEPADRNLRLGILERKIQTLGAAHGFEPSIRPEVMQFLADRFTDSVRELEGALNTLSARAGEGLSRMTLDEVQAILRPHLRSGEKRITIDDIQKATAEHYGMKQADLLSERRNRAVARPRQAAMWLAKQLTTRSLPDIGRRFGGRDHTTVLHAVRRIEALRAEDSALSHDLETLTRKLRG
Consider B3, for which the binding result is reported as “binds”.
